# From patent US20260028421A1 (JIANGSU HENGRUI PHARMACEUTICALS, published 2026)
# Substitutions are numbered along the chain they refer to.
# B1: P2-C8 CHI (antibody, human IgG1, kappa, V domains shown)
# VH: EVQLQQSGPVLVKPGASVKMSCKVSGYTFTDYYMHWVKQSHGKSLEWIGLINPYNGVTSYNQKFKGKATLTVDKSSSTAYMELNSLTSEDSAVYYCARPPRAYGNYAGYWGQGTTLTVSS
# VL: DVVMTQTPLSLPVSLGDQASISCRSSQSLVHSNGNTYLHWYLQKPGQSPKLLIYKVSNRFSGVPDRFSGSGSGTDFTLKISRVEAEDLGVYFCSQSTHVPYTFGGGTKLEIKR
# notes: chimeric
# B2: P3-D2 CHI (antibody, human IgG1, kappa, V domains shown)
# VH: B1 VH with V24A, Y33F, N55S, V57G, S59T, N105D
# VL: DVVMTQTPLSLPVSLGDQASISCRSSQSLVHSNGNTYLHWYLQKPGQSPKLLIYKVSNRFSGVPDRFSGSGSGTDFTLKISRVEAEDLGVYFCSQSTHVPLTFGTGTKLEIKR
# notes: chimeric
# B3: P2-B9 CHI (antibody, human IgG1, kappa, V domains shown)
# VH: QVQLQQPGAELVKPGASVKLSCKASGYTFSSYWMHWVKQRPGQGLEWIGMIHPKSDSVNNNEKFKNKATLTVDKSSSTVYLQLSSLTSEDSAVYSCARGGDSGYSMDYWGQGTSVTVSS
# VL: DIVLTQSPASLAVSLGQKATISCKASKKVTIFGSISALHWYQQKPGQPPKLIYNGAKLESGVSARFSDSGSQNRSPFGNQLSFTLTIDPVEADDAATYYCLQNKEVPYTFGGGTKLEIKR
# notes: chimeric
# B4: P3-E4 CHI (antibody, human IgG1, kappa, V domains shown)
# VH: QVQLQQPGAELVMPGAAVKLSCKASGYTFINYWMHWLKQRPGQGLEWIGEIDPSDGYTDYNQKFKGKATLTVDKSSSTAYMQLSSLTSEDSAVYYCAISLRGPITFGPFPYWGQGTLVTVSS
# VL: DIVLTQSPASLAVSLGQRATISCRASESVSIHGTHLMHWYQQKPGQPPKLLIYAASNLESGVPARFSGSGSETDFTLNIHPVAEEDAATYFCQHSIEDPRTFGGGTKLEIKR
# notes: chimeric
# B5: PL-4 (bispecific antibody)
# chain 1: not shown
# chain 2: DIVLTQSPASLAVSPGQRATITCRASESVSIHGTHLMHWYQQKPGQPPKLLIYAASKLESGVPARFSGSGSGTDFTLTINPVEAEDTANYYCQQSFEDPLTFGQGTKLEIKGGGGSGIPPKIECLPIDISIDEGKVLTVASCFTGEPTPEVTWSTGGRKIHSQEQGRFHIENTDDSTTLTIKDVQKQDGGLYTLTLRNEFGSDSATVNIHIRSI
# chain 3: not shown
# chain 4: not shown
# B6: PL-11 (bispecific antibody)
# chain 1: not shown
# chain 2: B5 chain 2 with G112R, G113T, G114V, G115A, C142A
# chain 3: not shown
# chain 4: not shown
# B7: PL-17 (bispecific antibody)
# chain 1: not shown
# chain 2: B5 chain 2 with G112R, G113T, G114V, G115A, C142A
# chain 3: not shown
# chain 4: not shown
# B8: PL-13 (bispecific antibody)
# chain 1: not shown
# chain 2: B5 chain 2 with G112R, G113T, G114V, G115A
# chain 3: not shown
# chain 4: not shown
# B9: PL-5 (bispecific antibody)
# chain 1: not shown
# chain 2: B5 chain 2 with C142A
# chain 3: not shown
# chain 4: not shown
# B10: PL-9 (bispecific antibody)
# chain 1: not shown
# chain 2: B5 chain 2 with V136C, C142A
# chain 3: not shown
# chain 4: not shown
# B11: PL-12 (bispecific antibody)
# chain 1: not shown
# chain 2: B5 chain 2 with G112R, G113T, G114V, G115A, V136C, C142A
# chain 3: not shown
# chain 4: not shown
# B12: PL-15 (bispecific antibody)
# chain 1: not shown
# chain 2: B5 chain 2 with G112R, G113T, G114V, G115A, V136C, C142A
# chain 3: not shown
# chain 4: not shown
# B13: PL-14 (bispecific antibody)
# chain 1: not shown
# chain 2: B5 chain 2 with G112R, G113T, G114V, G115A, C142A
# chain 3: not shown
# chain 4: not shown
# B14: PL-7 (bispecific antibody)
# chain 1: not shown
# chain 2: B5 chain 2
# chain 3: not shown
# chain 4: not shown
# B15: PL-10 (bispecific antibody)
# chain 1: not shown
# chain 2: B5 chain 2
# chain 3: not shown
# chain 4: not shown
# Biological target: T1, hGUCY2C ECD-His (human, UniProt P25092 24-430)
# T1 construct: also called human GUCY2C protein
# Experiment: SPR Biacore, antibody captured
# Source text: To test the affinity of the GUCY2C monoclonal antibodies of the present disclosure for GUCY2C, in this test example, the instruments Biacore 8K and Biacore T200 were used to detect the ability of the antibodies to bind to hGUCY2C-ECD-His (SEQ ID NO: 3). The specific method is as follows: The antibody was affinity-captured using a Protein A biosensor chip conjugated with an anti-human antibody, then a solution containing GUCY2C Protein flowed on the surface of the chip, and reaction signals were detected in real time with an instrument to obtain association and dissociation curves. After dissociation was completed for each cycle, the biosensor chip was washed with 10 mM glycine-hydrochloric acid (pH 1.5) for regeneration. Data fitting was performed using a 1:1 model.
Binder,Kd,koff,kon
B1,5.12 nM,0.000178 s⁻¹,34900 M⁻¹ s⁻¹
B2,4.5 nM,0.000173 s⁻¹,38600 M⁻¹ s⁻¹
B3,3.02 nM,0.000175 s⁻¹,58100 M⁻¹ s⁻¹
B4,12.9 nM,0.000228 s⁻¹,17700 M⁻¹ s⁻¹

# Biological target: hPDL1 (human, UniProt Q9NZQ7 19-238)
# Sequence (Q9NZQ7 19-238 limits assumed): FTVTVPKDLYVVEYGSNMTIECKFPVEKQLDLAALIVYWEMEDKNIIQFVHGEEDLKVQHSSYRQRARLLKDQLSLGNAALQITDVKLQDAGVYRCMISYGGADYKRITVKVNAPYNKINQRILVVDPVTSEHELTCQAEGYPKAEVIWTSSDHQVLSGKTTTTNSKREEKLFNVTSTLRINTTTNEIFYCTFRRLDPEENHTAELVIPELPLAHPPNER
# Experiment: ELISA
row,Binder,EC50
1,B5,0.7 nM
2,B6,0.6 nM
3,B7,1.4 nM
4,B8,0.5 nM
5,B9,0.7 nM
6,B10,0.6 nM
7,B11,0.5 nM
8,B12,1.4 nM
9,B13,1.3 nM
10,B14,0.5 nM
11,B15,0.6 nM

# Biological target: hCTLA4 (human, UniProt P16410 36-161)
# Sequence (P16410 36-161 limits assumed): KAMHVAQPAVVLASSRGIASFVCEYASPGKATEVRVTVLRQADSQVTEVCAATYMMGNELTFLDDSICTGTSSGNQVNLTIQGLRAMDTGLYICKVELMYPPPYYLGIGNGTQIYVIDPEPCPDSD
# Experiment: ELISA
row,Binder,EC50
1,B5,6.5 nM
2,B6,5.6 nM
3,B7,6.2 nM
4,B8,4.4 nM
5,B9,6.7 nM
6,B10,5.5 nM
7,B11,8 nM
8,B12,3.2 nM
9,B13,6 nM
10,B14,7.3 nM
11,B15,6.9 nM
